Test results as given in PMC4417048 (Nature cell biology, 2015).
Blank lines part the entries; values can stand above or below the molecule they belong to.

Key:
[1] = target: Syndetin (endogenous, human cells) (human (endogenous in H4 and HeLa)) (UniProt Q96JG6); assay: sedimentation velocity on glycerol gradients + SEC
[2] = target: T1, Syndetin (endogenous, human cells) (human (endogenous in H4 and HeLa), UniProt Q96JG6-1 1-964); assay: sedimentation velocity on glycerol gradients + SEC
T1 sequence: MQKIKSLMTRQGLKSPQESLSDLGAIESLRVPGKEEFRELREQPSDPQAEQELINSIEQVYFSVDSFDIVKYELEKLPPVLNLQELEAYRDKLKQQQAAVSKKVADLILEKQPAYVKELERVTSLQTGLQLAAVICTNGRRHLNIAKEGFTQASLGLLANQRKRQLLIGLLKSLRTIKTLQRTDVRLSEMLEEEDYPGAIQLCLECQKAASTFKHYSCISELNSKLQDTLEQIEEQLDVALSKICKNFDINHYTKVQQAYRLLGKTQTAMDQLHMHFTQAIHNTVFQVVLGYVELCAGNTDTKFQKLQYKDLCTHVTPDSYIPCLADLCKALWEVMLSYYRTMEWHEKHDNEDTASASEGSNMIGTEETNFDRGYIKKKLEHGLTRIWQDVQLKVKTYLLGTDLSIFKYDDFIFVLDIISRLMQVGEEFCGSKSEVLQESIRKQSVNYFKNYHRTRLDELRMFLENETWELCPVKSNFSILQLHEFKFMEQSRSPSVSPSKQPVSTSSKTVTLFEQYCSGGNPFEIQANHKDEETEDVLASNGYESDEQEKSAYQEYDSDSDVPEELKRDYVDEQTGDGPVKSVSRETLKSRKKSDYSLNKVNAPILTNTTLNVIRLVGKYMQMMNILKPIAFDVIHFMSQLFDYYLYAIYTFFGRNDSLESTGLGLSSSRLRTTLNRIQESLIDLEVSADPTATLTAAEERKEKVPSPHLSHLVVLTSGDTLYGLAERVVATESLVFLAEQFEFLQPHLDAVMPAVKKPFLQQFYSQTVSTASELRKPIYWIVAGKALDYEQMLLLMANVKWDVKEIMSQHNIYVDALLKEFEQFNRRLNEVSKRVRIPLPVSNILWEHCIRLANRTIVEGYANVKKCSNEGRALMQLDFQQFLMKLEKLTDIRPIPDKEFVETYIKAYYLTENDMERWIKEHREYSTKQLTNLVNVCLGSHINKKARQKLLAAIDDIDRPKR

stoichiometry N [1]: 1
Molecule: Vps53 (endogenous, human cells) (from UniProt Q5VIR6 1-832) (natural protein)

stoichiometry N [2]: 1
B1: Ang2 (endogenous, human cells) (natural protein)
chain: MAAAAAAGPSPGSGPGDSPEGPEGEAPERRRKAHGMLKLYYGLSEGEAAGRPAGPDPLDPTDLNGAHFDPEVYLDKLRRECPLAQLMDSETDMVRQIRALDSDMQTLVYENYNKFISATDTIRKMKNDFRKMEDEMDRLATNMAVITDFSARISATLQDRHERITKLAGVHALLRKLQFLFELPSRLTKCVELGAYGQAVRYQGRAQAVLQQYQHLPSFRAIQDDCQVITARLAQQLRQRFREGGSGAPEQAECVELLLALGEPAEELCEEFLAHARGRLEKELRNLEAELGPSPPAPDVLEFTDHGGSGFVGGLCQVAAAYQELFAAQGPAGAEKLAAFARQLGSRYFALVERRLAQEQGGGDNSLLVRALDRFHRRLRAPGALLAAAGLADAATEIVERVARERLGHHLQGLRAAFLGCLTDVRQALAAPRVAGKEGPGLAELLANVASSILSHIKASLAAVHLFTAKEVSFSNKPYFRGEFCSQGVREGLIVGFVHSMCQTAQSFCDSPGEKGGATPPALLLLLSRLCLDYETATISYILTLTDEQFLVQDQFPVTPVSTLCAEARETARRLLTHYVKVQGLVISQMLRKSVETRDWLSTLEPRNVRAVMKRVVEDTTAIDVQVGLLYEEGVRKAQSSDSSKRTFSVYSSSRQQGRYAPSYTPSAPMDTNLLSNIQKLFSERIDVFSPVEFNKVSVLTGIIKISLKTLLECVRLRTFGRFGLQQVQVDCHFLQLYLWRFVADEELVHLLLDEVVASAALRCPDPVPMEPSVVEVICERG

stoichiometry N [2]: 1
B2: Vps52 (endogenous, human cells) (natural protein)
chain: MAAAATMAAAARELVLRAGTSDMEEEEGPLAGGPGLQEPLQLGELDITSDEFILDEVDVHIQANLEDELVKEALKTGVDLRHYSKQVELELQQIEQKSIRDYIQESENIASLHNQITACDAVLERMEQMLGAFQSDLSSISSEIRTLQEQSGAMNIRLRNRQAVRGKLGELVDGLVVPSALVTAILEAPVTEPRFLEQLQELDAKAAAVREQEARGTAACADVRGVLDRLRVKAVTKIREFILQKIYSFRKPMTNYQIPQTALLKYRFFYQFLLGNERATAKEIRDEYVETLSKIYLSYYRSYLGRLMKVQYEEVAEKDDLMGVEDTAKKGFFSKPSLRSRNTIFTLGTRGSVISPTELEAPILVPHTAQRGEQRYPFEALFRSQHYALLDNSCREYLFICEFFVVSGPAAHDLFHAVMGRTLSMTLKHLDSYLADCYDAIAVFLCIHIVLRFRNIAAKRDVPALDRYWEQVLALLWPRFELILEMNVQSVRSTDPQRLGGLDTRPHYITRRYAEFSSALVSINQTIPNERTMQLLGQLQVEVENFVLRVAAEFSSRKEQLVFLINNYDMMLGVLMERAADDSKEVESFQQLLNARTQEFIEELLSPPFGGLVAFVKEAEALIERGQAERLRGEEARVTQLIRGFGSSWKSSVESLSQDVMRSFTNFRNGTSIIQGALTQLIQLYHRFHRVLSQPQLRALPARAELINIHHLMVELKKHKPNF
